Measurements from PMC9117880.
“And” between values parts separate entries of the source, which are not always exact repeats. Identical values can stand only once. Like-named read-outs stand apart in the source and are kept apart here.

Columns and labels:
Test in all cases: MST
[1] = target: SRS-MTBD (22/19) D3402A mutant (not stated | mouse)
[2] = target: SRS-MTBD (22/19) D3402A mutant (not stated | mouse); remark: listed apart in the source
[3] = target: SRS-MTBD (22/19) D3402A mutant (not stated | mouse); remark: listed apart in the source
[4] = target: SRS-MTBD (22/19) D3402A mutant (not stated | mouse); remark: listed apart in the source

taxol-stabilized, unlabeled microtubules (porcine brain tubulin) (from UniProt P02550 1-451) (complex)
Kd [1]: 0.53 µM
Kd [2]: 13 µM and 14.7 µM
Kd [3]: 5.49 µM
Kd [4]: 0.46 µM
